Results reported in paper PMC3812226, “A New Short Oligonucleotide-Based Strategy for the Precursor-Specific Regulation of microRNA Processing by Dicer”.

Columns and labels:
[1] = target: T1, hDicer (human recombinant Dicer) (human, UniProt Q9UPY3 1-1922); assay: competition; displaces labeled ATD_13.6 (most profound effect); Filter binding: 20 mM Tris-HCl pH 7.5, 250 mM NaCl (membrane pre-soak/reaction buffer), 37 C 30 min; hDicer EMSA: 20 min at 4 C, Dicer preincubated without divalent cations (Fig S1), native PAGE; details: protein: commercial; hairpin
[2] = target: T1, hDicer (human recombinant Dicer); assay: competition; displaces labeled ATD_13.6; Filter binding: 20 mM Tris-HCl pH 7.5, 250 mM NaCl (membrane pre-soak/reaction buffer), 37 C 30 min; hDicer EMSA: 20 min at 4 C, Dicer preincubated without divalent cations (Fig S1), native PAGE; details: protein: commercial; hairpin
[3] = target: T1, hDicer (human recombinant Dicer); assay: EMSA; 4 C; Filter binding: 20 mM Tris-HCl pH 7.5, 250 mM NaCl (membrane pre-soak/reaction buffer), 37 C 30 min; hDicer EMSA: 20 min at 4 C, Dicer preincubated without divalent cations (Fig S1), native PAGE; details: protein: commercial; label: 5'-32P; single strand
[4] = target: T1, hDicer (human recombinant Dicer); assay: EMSA; no divalent metal, 4 C; Filter binding: 20 mM Tris-HCl pH 7.5, 250 mM NaCl (membrane pre-soak/reaction buffer), 37 C 30 min; hDicer EMSA: 20 min at 4 C, Dicer preincubated without divalent cations (Fig S1), native PAGE; details: protein: commercial; label: 5'-32P

B1: pre-miR-16-1 (structured_RNA)
RNA: UAGCAGCACGUAAAUAUUGGCGUUAAGAUUCUAAAAUUAUCUCCAGUAUUAACUGUGCUGCUGAA
B1: binds [1].

B2: pre-miR-33a (structured_RNA)
RNA: GUGCAUUGUAGUUGCAUUGCAUGUUCUGGUGGUACCCAUGCAAUGUUUCCACAGUGCAUC
B2: binds [2].

B3: 2OMe-AL-210 (XNA)
strand: GGGGCAGCGCAG
modifications: 2'-O-methyl at every ribose
B3: binds [3].

B4: ATD_15.52 (structured_RNA)
RNA: GGGAGAAUCAUAAGUAGCGCAGUGAGUCGUUGUGCUGCCCAUGUUAACAGUUAGCC
B4: binds [4].

B5: pre-miR-21 (structured_RNA)
RNA: AGCUUAUCAGACUGAUGUUGACUGUUGAAUCUCAUGGCAACACCAGUCGAUGGGCUGU
B5: binds [2].
